Laboratory results published in patent US20230226223A1 (SOLA BIOSCIENCES, published 2023).
Where two headings read alike, the source gives them in different places.

How the values were obtained:
Test in all cases: cell-based or functional assay
[1] = molecular target: GFP-HTTQ74 reporter construct
[2] = molecular target: GFP-HTTQ74 reporter construct; remark: listed apart in the source
[3] = molecular target: GFP-HTTQ74 reporter construct; remark: listed apart in the source
[4] = molecular target: GFP-HTTQ74 reporter construct; remark: listed apart in the source
[5] = molecular target: GFP-HTTQ74 reporter construct; remark: listed apart in the source

B1: Construct 16, JB1-2XQBP1 (rigid linker) (designed binder)
chain: MGKDYYQTLGLARGASDEEIKRAYRRQALRYHPDKNKEPGAEEKFKEIAEAYDVLSDPRKREIFDRYGEEGLKGSDIEAAAKAAASNWKWWPGIFDGLESNWKWWPGIFD
- % Aggregation (relative to Q74 alone), filter trap assay [1]: 17.6%

B2: Construct 62, DnaJ-QBP1-QBP1 (designed binder)
chain: MAKQDYYEILGVSKTAEEREIRKAYKRLAMKYHPDRNQGDKEAEAKFKEIKEAYEVLTDSQKRAAYDQYGHADIGGGGSGGGGSGGGGSAAASNWKWWPGIFDLEGDYKDDDDKGSRAAASNWKWWPGIFDLE
- Reduction (%) of protein aggregation [2]: 15.7%

B3: Construct 34, JB1-QBP1-QBP1 (1) (designed binder)
chain: MGKDYYQTLGLARGASDEEIKRAYRRQALRYHPDKNKEPGAEEKFKEIAEAYDVLSDPRKREIFDRYGEEGLKGSGGGGSGGGGSGGGGSGGGGSAAASNWKWWPGIFDLEGDYKDDDDKGSRAAASNWKWWPGIFDLE
- Reduction of Aggregation (%), filter trap assay [3]: 96.3%
- Reduction (%) of protein aggregation [2]: 96.1%

B4: Construct 4, JB1-2XQBP1 (designed binder)
chain: MGKDYYQTLGLARGASDEEIKRAYRRQALRYHPDKNKEPGAEEKFKEIAEAYDVLSDPRKREIFDRYGEEGLKGSDIGGGGSGGGGSGGGGSGGGGSAAASNWKWWPGIFDGLESNWKWWPGIFD
- % Aggregation (relative to Q74 alone), filter trap assay [4]: 9.86%
- % Aggregation (relative to Q74 alone), filter trap assay [5]: 29.7%
- % Aggregation (relative to Q74 alone), filter trap assay [1]: 24.9%
- Reduction of Aggregation (%), filter trap assay [3]: 24.9%

B5: Construct 15, JB1-2XQBP1 (no flexible linker) (designed binder)
chain: MGKDYYQTLGLARGASDEEIKRAYRRQALRYHPDKNKEPGAEEKFKEIAEAYDVLSDPRKREIFDRYGEEGLKGSDIAAASNWKWWPGIFDGLESNWKWWPGIFD
- % Aggregation (relative to Q74 alone), filter trap assay [1]: 24.5%
